Source: US20190322750A1 (Y BIOLOGICS, published 2019)

How the values were obtained:
[1] = target: T1, PD-L1 on CHO cell line highly expressing PD-L1 (PD-1/PD-L1 blockade bioassay kit, promega J1250) (UniProt Q9NZQ7 19-290, limits assumed); test: cell-based or functional assay
[2] = target: T1, PD-L1 on CHO cell line highly …; test: cell-based or functional assay; remark: listed apart in the source
PD-L1-hFc = target: T2, PD-L1-hFc (human, UniProt Q9NZQ7 19-238); test: kinetics on PD-L1-hFc (legend paragraph 40; text names ProteOn XPR36, the sheet's sensorgrams have a nm axis)
T2 construct: extracellular domain; Made in HEK-293F cells, protein A purified; also called PD-L1 antigen; PD-L1 protein

[3] = target: T3, human PD-L1 over-expressed on HEK293E cells (human, UniProt Q9NZQ7 19-290); test: flow cytometry on HEK293E/PD-L1 cells, FITC anti-human IgG, serial dilutions; fit table
T3 construct: whole, on cells; also called human PD-L1 (NM_014143.2)
Method: 0.5 to 1×10⁶ cells per sample were prepared from the transformation cell pools highly expressing human PD-L1, and antibodies were serially diluted at a constant dilution rate and reacted with the prepared cells at 4° C. for 20 minutes. Then, the cells were washed three times with PBS (#LB001-02, Welgene) containing 2% fetal bovine serum and reacted at 4° C. for 20 minutes with an anti-human IgG antibody (#FI-3000, Vectorlabs) conjugated with a FITC (fluorescein isothiocyanate) fluorescent substance. Then, the cells were subjected to the same washing process as above and then suspended in 0.5 ml of PBS containing 2% FBS (#26140-079, Thermo Fisher) with an FACSCanto II flow cytometer (BD Biosciences, USA) as a flow cytometer (Table 11).

T2 sequence (Q9NZQ7 other isoform, or with tags, fused parts or gaps limits assumed): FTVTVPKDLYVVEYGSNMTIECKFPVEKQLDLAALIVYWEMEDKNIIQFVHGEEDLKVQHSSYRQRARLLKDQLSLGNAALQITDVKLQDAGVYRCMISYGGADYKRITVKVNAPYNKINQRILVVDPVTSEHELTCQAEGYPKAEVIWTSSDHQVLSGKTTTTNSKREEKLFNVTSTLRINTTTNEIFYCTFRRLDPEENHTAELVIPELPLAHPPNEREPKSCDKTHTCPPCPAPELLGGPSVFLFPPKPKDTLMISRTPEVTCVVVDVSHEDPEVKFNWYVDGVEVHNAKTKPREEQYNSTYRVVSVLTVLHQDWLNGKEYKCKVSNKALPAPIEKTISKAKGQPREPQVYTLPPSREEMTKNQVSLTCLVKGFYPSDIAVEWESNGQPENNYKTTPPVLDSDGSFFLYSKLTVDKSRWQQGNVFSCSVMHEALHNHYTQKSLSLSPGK
T1 sequence (Q9NZQ7 19-290 limits assumed): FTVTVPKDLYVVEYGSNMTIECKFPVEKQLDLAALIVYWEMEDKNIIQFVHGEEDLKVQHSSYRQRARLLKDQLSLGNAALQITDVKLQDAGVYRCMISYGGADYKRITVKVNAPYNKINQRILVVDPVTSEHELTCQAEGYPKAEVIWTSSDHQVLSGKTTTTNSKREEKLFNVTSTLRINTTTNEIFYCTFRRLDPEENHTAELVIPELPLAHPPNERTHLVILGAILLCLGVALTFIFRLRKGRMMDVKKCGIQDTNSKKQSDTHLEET
T3 sequence (Q9NZQ7 19-290): as the sequence (Q9NZQ7 19-290 limits assumed) above

B1: PDL1-16E12 (LS/4A6) (antibody, V domains shown)
VH: QMQLVQSGAEVKKPGSSVKVSCKASGGTFSSYAISWVRQAPGQGLEWMGRIIPILGIANYAQKFQGRVTITADKSTSTAYMELSSLRSEDTAVYYCAKPRDGYNLVAFDIWGQGTMVTVSS
VL: QLVLTQPTSVSGAPGQRVIISCTGSSSNIGAGYDVHWYQQLPGTAPKLLIYGNTNRPSGVPDRFSGSKSGTAASLAITGLQAEDEADYYCQSFDRSRSGSNVFGTGTKVTVL
Average *EC50 [nM], PD-1/PD-L1 blockade bioassay [1]: 0.48 nM

B2: PDL1-16E12 (LS/4A10) (antibody, V domains shown)
VH: QMQLVQSGAEVKKPGSSVKVSCKASGGTFSSYAISWVRQAPGQGLEWMGRIIPILGIANYAQKFQGRVTITADKSTSTAYMELSSLRSEDTAVYYCAKPRDGYNLVAFDIWGQGTMVTVSS
VL: QLVLTQPPSVSGAPGQRVTISCTGSNSNIGAGYDVHWYQQLPGTAPKLLIHGNNIRPSGVPDRFSGSRSGTSASLAITGLQADDEANYFCQSYDNSLRGSVFGTGTKVTVL
Average *EC50 [nM], PD-1/PD-L1 blockade bioassay [1]: 0.45 nM

B3: PDL1-16E12 (LS/4B8) (antibody, V domains shown)
VH: QMQLVQSGAEVKKPGSSVKVSCKASGGTFSSYAISWVRQAPGQGLEWMGRIIPILGIANYAQKFQGRVTITADKSTSTAYMELSSLRSEDTAVYYCAKPRDGYNLVAFDIWGQGTMVTVSS
VL: QLVLTQPPSVSGAPGQSVTISCTGSNSDIGAGHDVHWYQQLPGAAPKLLIHGDRDRPSGVPDRFSGSKSGTSASLAITGLQPEDEADYYCQSYNNSLRGSVFGTGTKVTVL
Average *EC50 [nM], PD-1/PD-L1 blockade bioassay [1]: 188 nM

B4: PDL1-16E12 (LS/4B11) (antibody, V domains shown)
VH: QMQLVQSGAEVKKPGSSVKVSCKASGGTFSSYAISWVRQAPGQGLEWMGRIIPILGIANYAQKFQGRVTITADKSTSTAYMELSSLRSEDTAVYYCAKPRDGYNLVAFDIWGQGTMVTVSS
VL: QLVLTQPPSVSGAPGQRVTISCTGTNSNIGAGHDVQWYQQIPGTAPKLLIYGNNNRPSGVPDRFSGSKSGTLASLAITGLQSEDEADYYCHSYDGSLSEGVFGTGTKVTVL
Average *EC50 [nM], PD-1/PD-L1 blockade bioassay [1]: 0.63 nM

B5: PDL1-16E12 (LS/4H5) (antibody, V domains shown)
VH: QMQLVQSGAEVKKPGSSVKVSCKASGGTFSSYAISWVRQAPGQGLEWMGRIIPILGIANYAQKFQGRVTITADKSTSTAYMELSSLRSEDTAVYYCAKPRDGYNLVAFDIWGQGTMVTVSS
VL: QLVLTQPPSVSGAPGQRVTISCTGSSSNIGAGYDVHWYQQLPGTAPKLLIYGNSNRPSGVPDRFSGSKSGTSASLAITGLQAEDEADYYCQSYDSSLSGGVFGGGTKLTVL
notes: also called PD-L1-16E12-4H5
EC50 (first run) [2]: 0.43 nM
EC50 (second run) [2]: 0.26 nM
Average *EC50 [nM], PD-1/PD-L1 blockade bioassay [1]: 0.33 nM
Kd (PD-L1-hFc): < 1 pM
koff (PD-L1-hFc): < 1e-07 s⁻¹
kon (PD-L1-hFc): 226000 M⁻¹ s⁻¹
Bmax [3]: 4020
Kd [3]: 1930 pM

B6: PDL1-16E12 (LS/4E12) (antibody, V domains shown)
VH: QMQLVQSGAEVKKPGSSVKVSCKASGGTFSSYAISWVRQAPGQGLEWMGRIIPILGIANYAQKFQGRVTITADKSTSTAYMELSSLRSEDTAVYYCAKPRDGYNLVAFDIWGQGTMVTVSS
VL: QLVLTQPPSVSAAPGQKVTFSCTGSSSNIGAGYDVHWYQHLPGAAPRLLIYANTNRPLGVPDRFSGSKSGTSASLAITGLQAEDEADYYCQSYDNRLSGSLFGGGTKLTVL
Average *EC50 [nM], PD-1/PD-L1 blockade bioassay [1]: 0.49 nM

B7: PDL1-16E12 (LS/4H11) (antibody, V domains shown)
VH: QMQLVQSGAEVKKPGSSVKVSCKASGGTFSSYAISWVRQAPGQGLEWMGRIIPILGIANYAQKFQGRVTITADKSTSTAYMELSSLRSEDTAVYYCAKPRDGYNLVAFDIWGQGTMVTVSS
VL: QLVLTQPPSVSGAPGQRVTISCTGSSSNVGAGYDVHWYQQLPGTAPKLLIYGNNNRPSGVPARFSGSKSGTSASLAITGLQAEDEADYYCQSYDSRLGVVFGGGTKLTVL
Average *EC50 [nM], PD-1/PD-L1 blockade bioassay [1]: 1.02 nM

B8: PDL1-16E12 (LS/4H6) (antibody, V domains shown)
VH: QMQLVQSGAEVKKPGSSVKVSCKASGGTFSSYAISWVRQAPGQGLEWMGRIIPILGIANYAQKFQGRVTITADKSTSTAYMELSSLRSEDTAVYYCAKPRDGYNLVAFDIWGQGTMVTVSS
VL: QLVLTQPPSVSAAPGQTVTISCTGSSSNIGAGYDVHWYQQFPGTAPKLLIYGNNNRPSGVPDRFSGSKSGTSASLAITGLQTDDEADYFCQSYDSSLRVSSVFGTGTKVTVL
Average *EC50 [nM], PD-1/PD-L1 blockade bioassay [1]: 0.51 nM

B9: PDL1-16E12 (LS/4G1) (antibody, V domains shown)
VH: QMQLVQSGAEVKKPGSSVKVSCKASGGTFSSYAISWVRQAPGQGLEWMGRIIPILGIANYAQKFQGRVTITADKSTSTAYMELSSLRSEDTAVYYCAKPRDGYNLVAFDIWGQGTMVTVSS
VL: QLVLTQPPSVSGAPGQRVTISCTGGSSNIGAGYDVHWYQQLPGTAPKLLLFGNTNRPSGVPGRFSGSKSGSSASLAITGLQSDDEADYYCQSYDSSLSGSVFGTGTKVTVL
Average *EC50 [nM], PD-1/PD-L1 blockade bioassay [1]: 0.47 nM

B10: PDL1-16E12 (LS/4H9) (antibody, V domains shown)
VH: QMQLVQSGAEVKKPGSSVKVSCKASGGTFSSYAISWVRQAPGQGLEWMGRIIPILGIANYAQKFQGRVTITADKSTSTAYMELSSLRSEDTAVYYCAKPRDGYNLVAFDIWGQGTMVTVSS
VL: QFVLTQPPSVSGAPGQRVTISCTGSRSNFGAGHDVHWYQQLPGTAPKLLIYGNNNRPSGVPDRFSGSKSGTSASLAIAGLQSDDEADYYCQSYDSSLSGSVFGTGTKVTVL
Average *EC50 [nM], PD-1/PD-L1 blockade bioassay [1]: 0.63 nM

B11: PDL1-16E12 (LS/4D4) (antibody, V domains shown)
VH: QMQLVQSGAEVKKPGSSVKVSCKASGGTFSSYAISWVRQAPGQGLEWMGRIIPILGIANYAQKFQGRVTITADKSTSTAYMELSSLRSEDTAVYYCAKPRDGYNLVAFDIWGQGTMVTVSS
VL: QLVLTQPSSVSGAPGQRVTISCTGSSSNLGAPYDVHWYQQLPGTAPKLLIYGNSNRPSGVPDRFSVSKSGTSASLAITGLQAEDEADYYCQSYDSSLSSSVFGGGTKLTVL
Average *EC50 [nM], PD-1/PD-L1 blockade bioassay [1]: 0.57 nM

B12: PDL1-16E12 (LS/4E5) (antibody, V domains shown)
VH: QMQLVQSGAEVKKPGSSVKVSCKASGGTFSSYAISWVRQAPGQGLEWMGRIIPILGIANYAQKFQGRVTITADKSTSTAYMELSSLRSEDTAVYYCAKPRDGYNLVAFDIWGQGTMVTVSS
VL: QLVLTQPPSVSGAPGQGVTISCTGDSSNIGAGYDVHWYQQFPGTAPKLLIYENSNRPSGVPDRFSGSKSGTSASLAITGLQAEDEADYYCQSYDSRLGAVFGGGTKLTVL
Average *EC50 [nM], PD-1/PD-L1 blockade bioassay [1]: 0.45 nM

B13: PDL1-16E12 (LS/4A11) (antibody, V domains shown)
VH: QMQLVQSGAEVKKPGSSVKVSCKASGGTFSSYAISWVRQAPGQGLEWMGRIIPILGIANYAQKFQGRVTITADKSTSTAYMELSSLRSEDTAVYYCAKPRDGYNLVAFDIWGQGTMVTVSS
VL: QLVLTQPPSVSGAPGQRVIISCTGSSSNIGAGYDVHWYQQVPGTAPKLLIYGNNHRPSGVPDRFSGSKSGTSASLAITGLQAEDETDYYCQSYDNRLSGSLFGGGTKLTVL
notes: also called PD-L1-16E12-4A11
EC50 (first run) [2]: 0.37 nM
EC50 (second run) [2]: 0.36 nM
Average *EC50 [nM], PD-1/PD-L1 blockade bioassay [1]: 0.34 nM
Kd (PD-L1-hFc): 79.8 pM
koff (PD-L1-hFc): 1.28e-05 s⁻¹
kon (PD-L1-hFc): 160000 M⁻¹ s⁻¹
Bmax [3]: 4230
Kd [3]: 2570 pM

B14: PDL1-16E12 (LS/4A7) (antibody, V domains shown)
VH: QMQLVQSGAEVKKPGSSVKVSCKASGGTFSSYAISWVRQAPGQGLEWMGRIIPILGIANYAQKFQGRVTITADKSTSTAYMELSSLRSEDTAVYYCAKPRDGYNLVAFDIWGQGTMVTVSS
VL: QLVLTQPPSVSGAPGQRVTISCTGSSSNIGAGYDVHWYQSLPGTVPKLLISGNSNRPPGVPDRFSGSKSGTSASLAITSLQSEDEADYYCHSYDGSLSEGVFGTGTKVTVL
notes: also called PD-L1-16E12-4A7
EC50 (first run) [2]: 0.38 nM
EC50 (second run) [2]: 0.4 nM
Average *EC50 [nM], PD-1/PD-L1 blockade bioassay [1]: 0.37 nM
Kd (PD-L1-hFc): 39.6 pM
kon (PD-L1-hFc): 161000 M⁻¹ s⁻¹
Bmax [3]: 4260
Kd [3]: 3920 pM

B15: PDL1-16E12 (LS/4A8) (antibody, V domains shown)
VH: QMQLVQSGAEVKKPGSSVKVSCKASGGTFSSYAISWVRQAPGQGLEWMGRIIPILGIANYAQKFQGRVTITADKSTSTAYMELSSLRSEDTAVYYCAKPRDGYNLVAFDIWGQGTMVTVSS
VL: QLVLTQPPSVSGAPGQRVTISCTGSSSNIGAGYDVHWYQHRPGKAPQLLIYGDNNRPSGIPDRFSGSKSGTSASLAITGLQPEDEADYYCQSFDSRLGVVFGGGTKLTVL
Average *EC50 [nM], PD-1/PD-L1 blockade bioassay [1]: 0.83 nM

B16: PDL1-16E12 (LS/4B12) (antibody, V domains shown)
VH: QMQLVQSGAEVKKPGSSVKVSCKASGGTFSSYAISWVRQAPGQGLEWMGRIIPILGIANYAQKFQGRVTITADKSTSTAYMELSSLRSEDTAVYYCAKPRDGYNLVAFDIWGQGTMVTVSS
VL: QLVLTQPPSVSGAPGQRVTISCTGSSSNIGAGYDVHWYQQLPGTAPKLIIYGDTKRASGVPDRFSGSKSGTSASLAITGLQAEDGADYYCQSYDNSLSAHAVFGTGTKVTVL
Average *EC50 [nM], PD-1/PD-L1 blockade bioassay [1]: 0.46 nM

B17: PDL1-16E12 (LS/4F11) (antibody, V domains shown)
VH: QMQLVQSGAEVKKPGSSVKVSCKASGGTFSSYAISWVRQAPGQGLEWMGRIIPILGIANYAQKFQGRVTITADKSTSTAYMELSSLRSEDTAVYYCAKPRDGYNLVAFDIWGQGTMVTVSS
VL: QFVLTQPPSVSGAPGQRVTISCTGSSSNIGAGSDVHWYQQLPGTAPKLLIYGNNNRPSGVPDRFSGSKSGTSASLAITGLQAEDEADYYCQSYDSSLNGVVFGGGTKLTVL
Average *EC50 [nM], PD-1/PD-L1 blockade bioassay [1]: 1.68 nM
